{
  "source": "patent US20110289632",
  "tested_on": "3-ketomyristoyl-ACP (enzymatically prepared from ShACP)",
  "data": [
    {"substance": "ShMKS2 (methylketone synthase 2 from Solanum habrochaites f glabratum), recombinant, without the transit peptide, His-tagged", "values": [
      {"measurement": "amount of 2-tridecanone formed (in vitro thioesterase activity assay, acid and heat treatment, GC-MS)", "result": "approximately 3-fold higher than levels found in buffer-incubated substrate solution treated with acid and heat"}
    ]}
  ]
}
